# Positions count from the first letter of the chain named.
# B1: B272-Fc (Fc fusion)
# chain: GSHSMRYFHTSVSRPGRGEPRFITVGYVDDTLFVRFDSDAASPREEPRAPWIEQEGPEYWDRETQICKAKAQTDREDLRTLLRYYNQSEAGSHTLQNMYGCDVGPDGRLLRGYHQDAYDGKDYIALNEDLSSWTAADTAAQITQRKWEAARVAEQLRAYLEGECVEWLRRYLENGKETLQRADPPKTHVTHHPISDHEATLRCWALGFYPAEITLTWQRDGEDQTQDTELVETRPAGDRTFQKWAAVVVPSGEEQRYTCHVQHEGLPKPLTLRW
# notes: also called B27052-Fc; HLA2-Fc; not shown: human IgG4 Fc (human IgG4-Fc vector, InvivoGen)
# B2: A252-Fc (Fc fusion)
# chain: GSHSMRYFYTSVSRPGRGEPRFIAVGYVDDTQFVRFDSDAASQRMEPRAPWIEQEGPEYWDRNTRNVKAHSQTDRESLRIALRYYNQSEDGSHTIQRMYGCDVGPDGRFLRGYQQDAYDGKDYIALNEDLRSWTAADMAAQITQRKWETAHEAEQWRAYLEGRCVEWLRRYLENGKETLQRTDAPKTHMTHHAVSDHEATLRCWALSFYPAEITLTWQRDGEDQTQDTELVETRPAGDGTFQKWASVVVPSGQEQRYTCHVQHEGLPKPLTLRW
# notes: also called HLA2-Fc; HLA-A25 open conformer; not shown: human IgG4 Fc (human IgG4-Fc vector, InvivoGen)
# B3: A302-Fc (Fc fusion)
# chain: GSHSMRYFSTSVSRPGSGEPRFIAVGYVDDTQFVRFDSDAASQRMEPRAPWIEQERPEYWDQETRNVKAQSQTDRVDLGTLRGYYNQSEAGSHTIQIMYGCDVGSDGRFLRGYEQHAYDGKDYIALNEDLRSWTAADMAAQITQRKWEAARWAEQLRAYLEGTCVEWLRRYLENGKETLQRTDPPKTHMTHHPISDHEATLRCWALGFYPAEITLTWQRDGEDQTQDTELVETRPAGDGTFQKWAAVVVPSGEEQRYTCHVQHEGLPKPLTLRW
# notes: also called HLA2-Fc; HLA-A30 open conformer; not shown: human IgG4 Fc (human IgG4-Fc vector, InvivoGen)
# B4: B582-Fc (Fc fusion)
# chain: GSHSMRYFYTAMSRPGRGEPRFIAVGYVDDTQFVRFDSDAASPRTEPRAPWIEQEGPEYWDGETRNMKASAQTYRENLRIALRYYNQSEAGSHIIQRMYGCDLGPDGRLLRGHDQSAYDGKDYIALNEDLSSWTAADTAAQITQRKWEAARVAEQLRAYLEGLCVEWLRRYLENGKETLQRADPPKTHVTHHPVSDHEATLRCWALGFYPAEITLTWQRDGEDQTQDTELVETRPAGDRTFQKWAAVVVPSGEEQRYTCHVQHEGLPKPLTLRW
# notes: also called HLA2-Fc; HLA-B58 open conformer; not shown: human IgG4 Fc (human IgG4-Fc vector, InvivoGen)
# B5: B532-Fc (Fc fusion)
# chain: B4 chain with G62R, E63N, R65Q, N66I, M67F, A69T, S70N, A71T
# notes: also called HLA2-Fc; HLA-B53 open conformer; not shown: human IgG4 Fc (human IgG4-Fc vector, InvivoGen)
# B6: B572-Fc (Fc fusion)
# chain: B4 chain with T45M, E46A, R97V, L103V, V194I
# notes: also called HLA2-Fc; HLA-B57 open conformer; not shown: human IgG4 Fc (human IgG4-Fc vector, InvivoGen)
# B7: C082-Fc (Fc fusion)
# chain: CSHSMRYFYTAVSRPGRGEPRFIAVGYVDDTQFVQFDSDAASPRGEPRAPWVEQEGPEYWDRETQKYKRQAQTDRVSLRNLRGYYNQSEAGSHTLQRMYGCDLGPDGRLLRGYNQFAYDGKDYIALNEDLRSWTAADTAAQITQRKWEAARTAEQLRAYLEGTCVEWLRRYLENGKKTLQRAEHPKTHVTHHPVSDHEATLRCWALGFYPAEITLTWQRDGEDQTQDTELVETRPAGDGTFQKWAAVVVPSGEEQRYTCHVQHEGLPEPLTLRW
# notes: also called HLA2-Fc; HLA-C08 open conformer; not shown: human IgG4 Fc (human IgG4-Fc vector, InvivoGen)
# B8: C122-Fc (Fc fusion)
# chain: B7 chain with Q35R, T73A, N114D, F116S, T152E, L156W, K177E
# notes: also called HLA2-Fc; HLA-C12 open conformer; not shown: human IgG4 Fc (human IgG4-Fc vector, InvivoGen)
# B9: human KIR3DL2 (receptor, UniProt P43630 22-340, looked up)
# chain: LMGGQDKPFLSARPSTVVPRGGHVALQCHYRRGFNNFMLYKEDRSHVPIFHGRIFQESFIMGPVTPAHAGTYRCRGSRPHSLTGWSAPSNPLVIMVTGNHRKPSLLAHPGPLLKSGETVILQCWSDVMFEHFFLHREGISEDPSRLVGQIHDGVSKANFSIGPLMPVLAGTYRCYGSVPHSPYQLSAPSDPLDIVITGLYEKPSLSAQPGPTVQAGENVTLSCSSWSSYDIYHLSREGEAHERRLRAVPKVNRTFQADFPLGPATHGGTYRCFGSFRALPCVWSNSSDPLLVSVTGNPSSSWPSPTEPSSKSGICRHLH
# notes: Bought protein coated on the ELISA plate; also called hu KIR3DL2
# Target: T1, mouse Pirb (mouse, UniProt P97484 25-642, limits assumed)
# T1 construct: Bought protein coated on the ELISA plate; also called PirB (murine homologue to LILRB)
# T1 sequence (looked up): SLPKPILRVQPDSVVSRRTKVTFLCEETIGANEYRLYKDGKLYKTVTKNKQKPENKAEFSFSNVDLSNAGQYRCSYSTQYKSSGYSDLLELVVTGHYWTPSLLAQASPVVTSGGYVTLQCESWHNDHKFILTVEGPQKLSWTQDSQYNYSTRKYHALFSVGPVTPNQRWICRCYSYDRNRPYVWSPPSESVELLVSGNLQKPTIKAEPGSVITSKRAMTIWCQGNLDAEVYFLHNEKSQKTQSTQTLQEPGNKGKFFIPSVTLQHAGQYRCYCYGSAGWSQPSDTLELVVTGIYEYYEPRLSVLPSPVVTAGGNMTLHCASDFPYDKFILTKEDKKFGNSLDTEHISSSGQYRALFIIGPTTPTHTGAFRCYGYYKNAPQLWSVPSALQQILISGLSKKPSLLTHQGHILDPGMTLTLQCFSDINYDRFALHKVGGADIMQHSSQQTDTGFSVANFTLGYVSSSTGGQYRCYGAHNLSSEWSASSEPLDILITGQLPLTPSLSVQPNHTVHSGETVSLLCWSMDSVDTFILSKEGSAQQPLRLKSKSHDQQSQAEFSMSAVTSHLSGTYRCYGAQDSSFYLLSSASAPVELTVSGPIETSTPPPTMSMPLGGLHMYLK
# Experiment: ELISA, receptor coated at 10 µg/mL, HLA2-Fc at 10 µg/mL, anti-human Fc-HRP
# Method: (§1) Competition ELISA assays were performed using Maxisorp (Nunc, Switzerland) 96 well plates coated with 10 μg/mL of selected leukocyte receptors (human KIR3DL1, human KIR3DL2, human KIR3DL3, human LILRB1, human LILRB2, human PTPRJ and mouse Pirb) purchased from Creative Biomart. Receptors were incubated for ON 4° C., blocked with 5% milk powder-TBS 2 hrs. HLA_2-Fc selected constructs (A25_2-Fc, A30_2-Fc, B2705_2-Fc, B53_2-Fc, B57_2-Fc, B58_2-Fc, C08_2-F, and C12_2-Fc) and their controls (A25-β2m-Fc, A30-β2m-Fc, B2705-β2m-Fc, B53-β2m-Fc, B57-β2m-Fc, B58-β2m-Fc, C08-β2m-Fc and C12-β2m-Fc) and isotype IgG4 were added at 10 μg/mL for 2 hrs RT. HRP-conjugated antibodies against human Fc were used as detectors.
row,Binder,binding result
1,B1,binds
2,B2,binds
3,B3,binds
4,B4,binds
5,B5,binds
6,B6,binds

# Target: T2, human LILRB2 (human, UniProt Q8N423 22-458, limits assumed)
# T2 construct: Bought protein coated on the ELISA plate
# Experiment: as above
# Method: as §1
# T2 sequence (Q8N423 22-458 limits assumed): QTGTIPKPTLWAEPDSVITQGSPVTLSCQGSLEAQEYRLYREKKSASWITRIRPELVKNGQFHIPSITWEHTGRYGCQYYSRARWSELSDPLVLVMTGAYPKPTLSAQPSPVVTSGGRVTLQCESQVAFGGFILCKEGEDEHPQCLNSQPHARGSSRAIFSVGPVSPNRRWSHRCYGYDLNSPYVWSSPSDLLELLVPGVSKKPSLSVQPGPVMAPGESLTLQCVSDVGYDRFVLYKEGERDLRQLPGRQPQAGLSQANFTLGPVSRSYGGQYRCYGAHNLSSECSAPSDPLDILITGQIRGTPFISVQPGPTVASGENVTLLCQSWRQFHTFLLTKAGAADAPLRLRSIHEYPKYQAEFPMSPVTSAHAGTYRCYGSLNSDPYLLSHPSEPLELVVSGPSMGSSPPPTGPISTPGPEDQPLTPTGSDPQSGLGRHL
row,Binder,binding result
1,B1,binds
2,B2,binds
3,B3,binds
4,B4,binds
5,B5,binds
6,B6,binds

# Target: T3, human KIR3DL3 (human, UniProt Q8N743 26-322, limits assumed)
# T3 construct: Bought protein coated on the ELISA plate; also called hu KIR3DL3
# Experiment: as above
# Method: as §1
# T3 sequence (Q8N743 26-322 limits assumed): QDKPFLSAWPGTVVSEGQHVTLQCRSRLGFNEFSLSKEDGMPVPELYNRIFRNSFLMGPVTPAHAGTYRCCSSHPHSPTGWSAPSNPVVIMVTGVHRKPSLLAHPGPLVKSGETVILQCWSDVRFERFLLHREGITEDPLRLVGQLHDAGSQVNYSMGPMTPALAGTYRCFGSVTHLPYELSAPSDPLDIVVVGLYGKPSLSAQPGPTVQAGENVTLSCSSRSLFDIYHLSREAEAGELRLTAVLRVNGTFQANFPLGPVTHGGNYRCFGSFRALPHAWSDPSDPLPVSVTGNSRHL
row,Binder,binding result
1,B1,binds
2,B2,binds
3,B3,binds
4,B4,binds
5,B5,binds
6,B6,binds

# Target: T4, human LILRB1 (human, UniProt Q8NHL6 24-458, limits assumed)
# T4 construct: Bought protein coated on the ELISA plate
# Experiment: as above
# Method: as §1
# T4 sequence (Q8NHL6 24-458 limits assumed): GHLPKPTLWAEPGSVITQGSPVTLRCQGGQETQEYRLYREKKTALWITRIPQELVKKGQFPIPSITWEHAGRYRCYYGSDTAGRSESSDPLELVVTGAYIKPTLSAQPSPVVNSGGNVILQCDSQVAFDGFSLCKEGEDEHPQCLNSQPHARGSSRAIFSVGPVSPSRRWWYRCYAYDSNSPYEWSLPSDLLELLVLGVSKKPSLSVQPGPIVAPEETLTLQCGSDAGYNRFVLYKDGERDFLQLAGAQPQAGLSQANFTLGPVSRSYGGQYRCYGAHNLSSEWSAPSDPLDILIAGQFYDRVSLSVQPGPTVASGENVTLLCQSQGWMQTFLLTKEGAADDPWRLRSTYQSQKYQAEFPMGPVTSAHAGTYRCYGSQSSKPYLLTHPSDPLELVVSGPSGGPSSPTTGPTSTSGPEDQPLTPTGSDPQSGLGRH
row,Binder,binding result
1,B1,binds
2,B2,binds
3,B3,binds
4,B4,binds
5,B5,binds
6,B6,binds

# Target: B9
# Experiment: as above
# Method: as §1
row,Binder,binding result
1,B1,binds
2,B2,binds
3,B4,binds
4,B5,binds
5,B6,binds

# Target: T5, human KIR3DL1 (human, UniProt P43629 22-340, limits assumed)
# T5 construct: Bought protein coated on the ELISA plate; also called hu KIR3DL1
# Experiment: as above
# Method: as §1
# T5 sequence (P43629 22-340 limits assumed): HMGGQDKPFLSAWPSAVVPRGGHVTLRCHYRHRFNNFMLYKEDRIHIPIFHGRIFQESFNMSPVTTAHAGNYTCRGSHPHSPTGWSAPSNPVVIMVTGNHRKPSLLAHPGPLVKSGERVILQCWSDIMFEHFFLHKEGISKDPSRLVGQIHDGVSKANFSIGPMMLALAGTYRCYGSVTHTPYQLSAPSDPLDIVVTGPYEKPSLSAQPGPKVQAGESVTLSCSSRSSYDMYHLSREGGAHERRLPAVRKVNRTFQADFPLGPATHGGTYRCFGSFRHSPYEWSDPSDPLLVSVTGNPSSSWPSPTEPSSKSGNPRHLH
row,Binder,binding result
1,B1,binds
2,B2,binds
3,B4,binds
4,B5,binds
5,B6,binds

# Target: T4, human LILRB1
# Experiment: ELISA (FIG. 5D)
# Method: (§2) A) hu KIR3DL1, B) hu KIR3DL2, and C) hu KIR3DL3 are expressed in NK cells and subpopulations of T cells. D) LILRB1, and E) LILRB2 expressed mostly in myeloid cells, F) PirB (murine homologue to LILRB) and G) PTPRJ (on leukocytes is preferentially expressed in MDSCs cells and activated T cells) Figure 5:
# as §1
row,Binder,binding result
1,B7,binds
2,B8,binds

# Target: T1, mouse Pirb
# Experiment: ELISA (FIG. 5F)
# Method: as §2, §1
row,Binder,binding result
1,B7,binds
2,B8,binds

# Target: T6, B57-β2m-Fc (human, UniProt P61769 21-119, limits assumed)
# T6 construct: HLA-Fc heavy chain with beta2m, made in CHO cells; also called HLA-β2m-Fc; control MHC-Ia heterotrimer; not shown: human IgG4 Fc (human IgG4-Fc vector, InvivoGen)
# Experiment: ELISA, receptor coated at 10 µg/mL, anti-human Fc-HRP
# Method: as §1
# T6 sequence (P61769 21-119 limits assumed): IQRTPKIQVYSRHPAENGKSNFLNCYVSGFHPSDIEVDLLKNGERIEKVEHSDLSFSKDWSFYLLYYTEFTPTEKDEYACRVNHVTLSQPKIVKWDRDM
row,Binder,binding result
1,B9,no binding (tested: 10 µg/mL)

# Target: T7, A25-β2m-Fc (human, UniProt P61769 21-119, limits assumed)
# T7 construct: HLA-Fc heavy chain with beta2m, made in CHO cells; also called HLA-β2m-Fc; control MHC-Ia heterotrimer; not shown: human IgG4 Fc (human IgG4-Fc vector, InvivoGen)
# Experiment: as above
# Method: as §1
# T7 sequence (P61769 21-119 limits assumed): as above
row,Binder,binding result
1,B9,no binding (tested: 10 µg/mL)

# Target: T8, B27-β2m-Fc (human, UniProt P61769 21-119)
# T8 construct: HLA-Fc heavy chain with beta2m, made in CHO cells; also called B2705-β2m-Fc; HLA-β2m-Fc; not shown: human IgG4 Fc (human IgG4-Fc vector, InvivoGen)
# Experiment: as above
# Method: as §1
# T8 sequence (P61769 21-119 limits assumed): as above
row,Binder,binding result
1,B9,no binding (tested: 10 µg/mL)

# Target: T9, B58-β2m-Fc (human, UniProt P61769 21-119, limits assumed)
# T9 construct: HLA-Fc heavy chain with beta2m, made in CHO cells; also called HLA-β2m-Fc; control MHC-Ia heterotrimer; not shown: human IgG4 Fc (human IgG4-Fc vector, InvivoGen)
# Experiment: as above
# Method: as §1
# T9 sequence (P61769 21-119 limits assumed): as above
row,Binder,binding result
1,B9,no binding (tested: 10 µg/mL)

# Target: T10, B53-β2m-Fc (human, UniProt P61769 21-119, limits assumed)
# T10 construct: HLA-Fc heavy chain with beta2m, made in CHO cells; also called HLA-β2m-Fc; control MHC-Ia heterotrimer; not shown: human IgG4 Fc (human IgG4-Fc vector, InvivoGen)
# Experiment: as above
# Method: as §1
# T10 sequence (P61769 21-119 limits assumed): as above
row,Binder,binding result
1,B9,no binding (tested: 10 µg/mL)

# Target: T11, A30-β2m-Fc (human, UniProt P61769 21-119)
# T11 construct: HLA-Fc heavy chain with beta2m, made in CHO cells; also called HLA-β2m-Fc; control MHC-Ia heterotrimer; not shown: human IgG4 Fc (human IgG4-Fc vector, InvivoGen)
# Experiment: as above
# Method: as §1
# T11 sequence (P61769 21-119 limits assumed): as above
row,Binder,binding result
1,B9,no binding (tested: 10 µg/mL)

# Target: T2, human LILRB2
# Experiment: ELISA (FIG. 5E)
# Method: as §2, §1
row,Binder,binding result
1,B7,binds
2,B8,binds

# Target: T3, human KIR3DL3
# Experiment: ELISA (FIG. 5C)
# Method: as §2, §1
row,Binder,binding result
1,B7,binds
2,B8,binds

# Target: B9
# Experiment: ELISA (FIG. 5B)
# Method: as §2, §1
row,Binder,binding result
1,B7,binds
2,B8,binds
3,B3,binds

# Target: T5, human KIR3DL1
# Experiment: ELISA (FIG. 5A)
# Method: as §2, §1
row,Binder,binding result
1,B7,binds
2,B8,binds
3,B3,binds
